The target of assay [1] is Saos-2 PTH1R (UniProt Q03431). Nature of the assay: cell-based or functional assay.
Assay [2] deals with T1, Saos-2 PTH1R (Homo sapiens, UniProt Q03431).
T1 construct: endogenous in cells; host or cells: Saos-2
T1 sequence (Q03431 27-593): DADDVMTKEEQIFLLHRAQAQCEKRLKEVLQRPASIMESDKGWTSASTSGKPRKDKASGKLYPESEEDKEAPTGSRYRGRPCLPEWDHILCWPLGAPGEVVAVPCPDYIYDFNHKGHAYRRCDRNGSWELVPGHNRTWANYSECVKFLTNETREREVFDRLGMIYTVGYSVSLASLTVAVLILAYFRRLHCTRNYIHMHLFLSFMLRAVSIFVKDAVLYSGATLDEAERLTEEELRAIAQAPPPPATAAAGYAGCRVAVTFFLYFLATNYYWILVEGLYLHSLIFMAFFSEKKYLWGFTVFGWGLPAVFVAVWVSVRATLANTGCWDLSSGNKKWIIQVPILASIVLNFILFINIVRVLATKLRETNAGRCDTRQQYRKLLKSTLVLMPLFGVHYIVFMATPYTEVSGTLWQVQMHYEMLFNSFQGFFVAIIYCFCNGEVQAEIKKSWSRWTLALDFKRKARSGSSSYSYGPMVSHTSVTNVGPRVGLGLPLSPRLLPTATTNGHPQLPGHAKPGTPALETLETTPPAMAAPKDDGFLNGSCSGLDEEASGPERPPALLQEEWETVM
Nature of the assay: cAMP-efficacy assay in Saos-2 cells. Format: cell-based. As for the experimental part:
Peptides were dissolved in phosphate buffered saline and further diluted in Tyrode's buffer (TB, Sigma-Aldrich) containing 0.1% BSA and 100 μM isobutyl-methyl-xanthine (IBMX, Sigma-Aldrich). Saos-2 cells were seeded at 50,000 cells/well in 96-microtiter plates and grown for two days before the efficacy assays. On the day of analysis, the growth medium was carefully removed by suction. Cells were washed once with 200 μl TB/0.1% BSA. The buffer was replaced with 100 μl reaction mixture (±test peptide), and incubated at 37° C. for 15 min. The reaction was stopped by addition of 25 μl of ice-cold 0.5 M HCl. Cells were in the following incubated on ice for 60 min. 75 μl acetate-buffer, pH6.2, was added to each well of a 96-well cAMP FlashPlate (Perkin-Elmer). […] FlashPlates were incubated overnight at 4° C., emptied by suction and counted in a TopCounter (Packard).
Determinations were performed in single determinations or triplicates at all doses. […] Standards were included as single determinations, duplicates or triplicates in each experiment, preferentially on each plate.
Concentration-dependent cAMP responses were imported into GraphPad Prism vers. 4 (GraphPad Software), transformed and plotted. […] Thus, a four-parameter logistic equation was used for determination of the EC50 values. Curves were fitted with a function for sigmoidal dose response curve (variable slope) non-linear fit Y=Bottom+(Top-Bottom)/(1+10̂((LogEC50−X)*HillSlope)) where X is the logarithm of concentration and Y is the response. Y starts at Bottom and goes to Top with a sigmoid shape. pEC50, Hill-coefficient and the maximally inducible concentration of cAMP (Emax) were evaluated.
Overall statistical differences were analyzed with Statistica (Statsoft) using one-way ANOVA. Post-hoc comparisons were made by the use of Fisher's Least Significance Test. Results were considered significant, when p was lower than 0.05.

Bridge positions count the residues as written; N and C are the ends. Square brackets hold non-standard residues; d marks the D form. Peptide text beside a SMILES is read from it. hArg = N=C(N)NCCCC[C@H](N)C(=O)O; Met(O) = CS(=O)CC[C@H](N)C(=O)O; Ac5c = NC1(C(=O)O)CCCC1; Aib = CC(C)(N)C(=O)O

Turning to “H-Ac5c-Val-Aib-Glu-Ile-Gln-Leu-Leu-His-Gln-Har-Ala-Lys( )-Trp-Leu-Asp-Asp( )-NH2 (peptide)”, in assay [1], the Emax, cAMP efficacy assay in Saos-2 cells (22T, trifluoroacetate salt) (relative to control (SEQ ID NO: 32)) was found to be 1.08 and the pEC50, cAMP efficacy assay in Saos-2 cells (22T, trifluoroacetate salt) was 7.13 -log(M).

With “H-Ac6c-Val-Aib-Glu-Ile-Gln-Leu-Leu-His-Gln-Har-Ala-Lys( )-Trp-Leu-Asn-Asp( )-NH2 (peptide)”, in assay [1], the Emax, cAMP efficacy assay in Saos-2 cells (10T, trifluoroacetate salt) (relative to control (SEQ ID NO: 32)) came out at 1.08 and the pEC50, cAMP efficacy assay in Saos-2 cells (10T, trifluoroacetate salt) was 7.9 -log(M).

With “H-Ac5c-Val-Aib-Glu-Ile-Gln-Leu-Met-His-Gln-Har-Ala-Lys( )-Phe-Leu-Asn-Asp( )-NH2 (peptide)”, in assay [1], the Emax, cAMP efficacy assay in Saos-2 cells (26T, trifluoroacetate salt) (relative to control (SEQ ID NO: 32)) was 1.08 and the pEC50, cAMP efficacy assay in Saos-2 cells (26T, trifluoroacetate salt) is 7.9 -log(M).

Turning to “H-Ac5c-Val-Aib-Glu-Ile-Gln-Leu-Leu-His-Gln-Har-Arg-Lys( )-Trp-Leu-Asn-Asp( )-NH2 (peptide)”, in assay [1], the Emax, cAMP efficacy assay in Saos-2 cells (28T, trifluoroacetate salt) (relative to control (SEQ ID NO: 32)) was determined as 0.95 and the pEC50, cAMP efficacy assay in Saos-2 cells (28T, trifluoroacetate salt) was 8.27 -log(M).

Consider “H-Nva-Val-Aib-Glu-Ile-Gln-Leu-Leu-His-Gln-Har-Ala-Lys( )-Trp-Leu-Asn-Asp( )-NH2 (peptide)”, for which, in assay [1], the Emax, cAMP efficacy assay in Saos-2 cells (12T, trifluoroacetate salt) (relative to control (SEQ ID NO: 32)) amounted to 1.04 and the pEC50, cAMP efficacy assay in Saos-2 cells (12T, trifluoroacetate salt) is 6.99 -log(M).

With “H-Ac5c-Val-Ac5c-Glu-Ile-Gln-Leu-Leu-His-Gln-Har-Ala-Lys( )-Trp-Leu-Asn-Asp( )-NH2 (peptide)”, in assay [1], the Emax, cAMP efficacy assay in Saos-2 cells (14T, trifluoroacetate salt) (relative to control (SEQ ID NO: 32)) was found to be 1.03 and the pEC50, cAMP efficacy assay in Saos-2 cells (14T, trifluoroacetate salt) was 7.45 -log(M).

In general, EC50 refers to the midpoint of the concentration-response curve. For `CC[C@H](C)[C@H](NC(=O)[C@H](CCC(=O)O)NC(=O)C(C)(C)NC(=O)[C@@H](NC(=O)C1(N)CCCC1)C(C)C)C(=O)N[C@@H](CCC(N)=O)C(=O)N[C@@H](CC(C)C)C(=O)N[C@@H](CC[S+](C)[O-])C(=O)N[C@@H](Cc1c[nH]cn1)C(=O)N[C@@H](CCC(N)=O)C(=O)N[C@@H](CCCCNC(=N)N)C(=O)N[C@@H](C)C(=O)N[C@H]1CCCCNC(=O)C[C@@H](C(N)=O)NC(=O)[C@H](CC(N)=O)NC(=O)[C@H](CC(C)C)NC(=O)[C@H](Cc2c[nH]c3ccccc23)NC1=O` (stereo partly drawn) [SEQ ID NO: 40, H-Ac5c-Val-Aib-Glu-Ile-Gln-Leu-Met(O)-His-Gln-Har-Ala-Lys( )-Trp-Leu-Asn-Asp( )-NH2] (H-[Ac5c]V[Aib]EIQL[Met(O)]HQ[hArg]AKWLND-NH2; lactam 13-17), in assay [2] (cAMP, 100 μM IBMX, 37° C. 15 min, suffix of label = salt tested), the EC50 was 126 nM. In assay [2] (relative effect to the control (SEQ ID NO: 32)), the “Emax ± SEM” value amounted to 1.1.

In the case of “H-Ac5c-Val-Nva-Glu-Ile-Gln-Leu-Leu-His-Gln-Har-Ala-Lys( )-Trp-Leu-Asn-Asp( )-NH2 (peptide)”, in assay [1], the Emax, cAMP efficacy assay in Saos-2 cells (16T, trifluoroacetate salt) (relative to control (SEQ ID NO: 32)) stood at 1.03 and the pEC50, cAMP efficacy assay in Saos-2 cells (16T, trifluoroacetate salt) is 6.92 -log(M).

The values are drawn from patent US20100048462A1, “TRUNCATED PTH PEPTIDES WITH A CYCLIC CONFORMATION” (Zealand Pharma A/S, priority 2006, published 2010).
